US20140357577A1, “HIV Membrane Fusion Inhibitors” (priority 2011, published 2014)
Starred links: 1 amine or outer side, 2 acyl side, 3 side chain; linkers in the order of their positions; H or OH if unused. Positions of bridges follow the written chain, without caps; N, C: chain ends. Non-standard residues stand in square brackets, D forms with d. *: point of attachment. pXylylene = c1cc(C[*:2])ccc1C[*:1]; Palmitoyl = CCCCCCCCCCCCCCCC(=O)*; tBuAla = CC(C)(C)C[C@H](N)C(=O)O; Suc = O=C(CCC(=O)[*:2])[*:1]; Pentanoyl = CCCCC(=O)*

B1: peptide 13 (peptide)
peptide: Suc-ANYLALIEALIRAAQEQQEKNEAALK(Palmitoyl)-NH2
SMILES: CCCCCCCCCCCCCCCC(=O)NCCCC[C@H](NC(=O)[C@H](CC(C)C)NC(=O)[C@H](C)NC(=O)[C@H](C)NC(=O)[C@H](CCC(=O)O)NC(=O)[C@H](CC(N)=O)NC(=O)[C@H](CCCCN)NC(=O)[C@H](CCC(=O)O)NC(=O)[C@H](CCC(N)=O)NC(=O)[C@H](CCC(N)=O)NC(=O)[C@H](CCC(=O)O)NC(=O)[C@H](CCC(N)=O)NC(=O)[C@H](C)NC(=O)[C@H](C)NC(=O)[C@H](CCCNC(=N)N)NC(=O)[C@@H](NC(=O)[C@H](CC(C)C)NC(=O)[C@H](C)NC(=O)[C@H](CCC(=O)O)NC(=O)[C@@H](NC(=O)[C@H](CC(C)C)NC(=O)[C@H](C)NC(=O)[C@H](CC(C)C)NC(=O)[C@H](Cc1ccc(O)cc1)NC(=O)[C@H](CC(N)=O)NC(=O)[C@H](C)NC(=O)CCC(=O)O)[C@@H](C)CC)[C@@H](C)CC)C(N)=O
B2: peptide 91 (peptide)
peptide: Pentanoyl-ECYLRCIEELIRKAQEQQEKNEAALR-NH2
modifications: linker 2-6 via pXylylene
SMILES: CCCCC(=O)N[C@@H](CCC(=O)O)C(=O)N[C@H]1CSCc2ccc(cc2)CSC[C@@H](C(=O)N[C@H](C(=O)N[C@@H](CCC(=O)O)C(=O)N[C@@H](CCC(=O)O)C(=O)N[C@@H](CC(C)C)C(=O)N[C@H](C(=O)N[C@@H](CCCNC(=N)N)C(=O)N[C@@H](CCCCN)C(=O)N[C@@H](C)C(=O)N[C@@H](CCC(N)=O)C(=O)N[C@@H](CCC(=O)O)C(=O)N[C@@H](CCC(N)=O)C(=O)N[C@@H](CCC(N)=O)C(=O)N[C@@H](CCC(=O)O)C(=O)N[C@@H](CCCCN)C(=O)N[C@@H](CC(N)=O)C(=O)N[C@@H](CCC(=O)O)C(=O)N[C@@H](C)C(=O)N[C@@H](C)C(=O)N[C@@H](CC(C)C)C(=O)N[C@@H](CCCNC(=N)N)C(N)=O)[C@@H](C)CC)[C@@H](C)CC)NC(=O)[C@H](CCCNC(=N)N)NC(=O)[C@H](CC(C)C)NC(=O)[C@H](Cc2ccc(O)cc2)NC1=O
B3: peptide 7 (peptide)
peptide: Suc-ANYLALIEALIRAAQEQQEKNEAALR-NH2
SMILES: CC[C@H](C)[C@H](NC(=O)[C@H](CC(C)C)NC(=O)[C@H](C)NC(=O)[C@H](CCC(=O)O)NC(=O)[C@@H](NC(=O)[C@H](CC(C)C)NC(=O)[C@H](C)NC(=O)[C@H](CC(C)C)NC(=O)[C@H](Cc1ccc(O)cc1)NC(=O)[C@H](CC(N)=O)NC(=O)[C@H](C)NC(=O)CCC(=O)O)[C@@H](C)CC)C(=O)N[C@@H](CCCNC(=N)N)C(=O)N[C@@H](C)C(=O)N[C@@H](C)C(=O)N[C@@H](CCC(N)=O)C(=O)N[C@@H](CCC(=O)O)C(=O)N[C@@H](CCC(N)=O)C(=O)N[C@@H](CCC(N)=O)C(=O)N[C@@H](CCC(=O)O)C(=O)N[C@@H](CCCCN)C(=O)N[C@@H](CC(N)=O)C(=O)N[C@@H](CCC(=O)O)C(=O)N[C@@H](C)C(=O)N[C@@H](C)C(=O)N[C@@H](CC(C)C)C(=O)N[C@@H](CCCNC(=N)N)C(N)=O
B4: peptide 90 (peptide)
peptide: Suc-ECYLACIEELIRKAQEQQEKNEAALR-NH2
modifications: linker 2-6 via pXylylene
SMILES: CC[C@H](C)[C@H](NC(=O)[C@@H]1CSCc2ccc(cc2)CSC[C@H](NC(=O)[C@H](CCC(=O)O)NC(=O)CCC(=O)O)C(=O)N[C@@H](Cc2ccc(O)cc2)C(=O)N[C@@H](CC(C)C)C(=O)N[C@@H](C)C(=O)N1)C(=O)N[C@@H](CCC(=O)O)C(=O)N[C@@H](CCC(=O)O)C(=O)N[C@@H](CC(C)C)C(=O)N[C@H](C(=O)N[C@@H](CCCNC(=N)N)C(=O)N[C@@H](CCCCN)C(=O)N[C@@H](C)C(=O)N[C@@H](CCC(N)=O)C(=O)N[C@@H](CCC(=O)O)C(=O)N[C@@H](CCC(N)=O)C(=O)N[C@@H](CCC(N)=O)C(=O)N[C@@H](CCC(=O)O)C(=O)N[C@@H](CCCCN)C(=O)N[C@@H](CC(N)=O)C(=O)N[C@@H](CCC(=O)O)C(=O)N[C@@H](C)C(=O)N[C@@H](C)C(=O)N[C@@H](CC(C)C)C(=O)N[C@@H](CCCNC(=N)N)C(N)=O)[C@@H](C)CC
B5: peptide 15 (peptide)
peptide: Pentanoyl-ANYLALIEALIRAAQEQQEKNEAALR-NH2
SMILES: CCCCC(=O)N[C@@H](C)C(=O)N[C@@H](CC(N)=O)C(=O)N[C@@H](Cc1ccc(O)cc1)C(=O)N[C@@H](CC(C)C)C(=O)N[C@@H](C)C(=O)N[C@@H](CC(C)C)C(=O)N[C@H](C(=O)N[C@@H](CCC(=O)O)C(=O)N[C@@H](C)C(=O)N[C@@H](CC(C)C)C(=O)N[C@H](C(=O)N[C@@H](CCCNC(=N)N)C(=O)N[C@@H](C)C(=O)N[C@@H](C)C(=O)N[C@@H](CCC(N)=O)C(=O)N[C@@H](CCC(=O)O)C(=O)N[C@@H](CCC(N)=O)C(=O)N[C@@H](CCC(N)=O)C(=O)N[C@@H](CCC(=O)O)C(=O)N[C@@H](CCCCN)C(=O)N[C@@H](CC(N)=O)C(=O)N[C@@H](CCC(=O)O)C(=O)N[C@@H](C)C(=O)N[C@@H](C)C(=O)N[C@@H](CC(C)C)C(=O)N[C@@H](CCCNC(=N)N)C(N)=O)[C@@H](C)CC)[C@@H](C)CC
B6: peptide 14 (peptide)
peptide: Pentanoyl-ANYAALIEALIRAAQEQQEKNEAALR-NH2
SMILES: CCCCC(=O)N[C@@H](C)C(=O)N[C@@H](CC(N)=O)C(=O)N[C@@H](Cc1ccc(O)cc1)C(=O)N[C@@H](C)C(=O)N[C@@H](C)C(=O)N[C@@H](CC(C)C)C(=O)N[C@H](C(=O)N[C@@H](CCC(=O)O)C(=O)N[C@@H](C)C(=O)N[C@@H](CC(C)C)C(=O)N[C@H](C(=O)N[C@@H](CCCNC(=N)N)C(=O)N[C@@H](C)C(=O)N[C@@H](C)C(=O)N[C@@H](CCC(N)=O)C(=O)N[C@@H](CCC(=O)O)C(=O)N[C@@H](CCC(N)=O)C(=O)N[C@@H](CCC(N)=O)C(=O)N[C@@H](CCC(=O)O)C(=O)N[C@@H](CCCCN)C(=O)N[C@@H](CC(N)=O)C(=O)N[C@@H](CCC(=O)O)C(=O)N[C@@H](C)C(=O)N[C@@H](C)C(=O)N[C@@H](CC(C)C)C(=O)N[C@@H](CCCNC(=N)N)C(N)=O)[C@@H](C)CC)[C@@H](C)CC
B7: peptide 11 (peptide)
peptide: Suc-ANYLALIEAL[tBuAla]RAAQEQQEKNEAALR-NH2
SMILES: CC[C@H](C)[C@H](NC(=O)[C@H](CC(C)C)NC(=O)[C@H](C)NC(=O)[C@H](CC(C)C)NC(=O)[C@H](Cc1ccc(O)cc1)NC(=O)[C@H](CC(N)=O)NC(=O)[C@H](C)NC(=O)CCC(=O)O)C(=O)N[C@@H](CCC(=O)O)C(=O)N[C@@H](C)C(=O)N[C@@H](CC(C)C)C(=O)N[C@@H](CC(C)(C)C)C(=O)N[C@@H](CCCNC(=N)N)C(=O)N[C@@H](C)C(=O)N[C@@H](C)C(=O)N[C@@H](CCC(N)=O)C(=O)N[C@@H](CCC(=O)O)C(=O)N[C@@H](CCC(N)=O)C(=O)N[C@@H](CCC(N)=O)C(=O)N[C@@H](CCC(=O)O)C(=O)N[C@@H](CCCCN)C(=O)N[C@@H](CC(N)=O)C(=O)N[C@@H](CCC(=O)O)C(=O)N[C@@H](C)C(=O)N[C@@H](C)C(=O)N[C@@H](CC(C)C)C(=O)N[C@@H](CCCNC(=N)N)C(N)=O
B8: peptide 92 (peptide)
peptide: Pentanoyl-ECYLCLIEELIRKAQEQQEKNEAALR-NH2
modifications: linker 2-5 via pXylylene
SMILES: CCCCC(=O)N[C@@H](CCC(=O)O)C(=O)N[C@H]1CSCc2ccc(cc2)CSC[C@@H](C(=O)N[C@@H](CC(C)C)C(=O)N[C@H](C(=O)N[C@@H](CCC(=O)O)C(=O)N[C@@H](CCC(=O)O)C(=O)N[C@@H](CC(C)C)C(=O)N[C@H](C(=O)N[C@@H](CCCNC(=N)N)C(=O)N[C@@H](CCCCN)C(=O)N[C@@H](C)C(=O)N[C@@H](CCC(N)=O)C(=O)N[C@@H](CCC(=O)O)C(=O)N[C@@H](CCC(N)=O)C(=O)N[C@@H](CCC(N)=O)C(=O)N[C@@H](CCC(=O)O)C(=O)N[C@@H](CCCCN)C(=O)N[C@@H](CC(N)=O)C(=O)N[C@@H](CCC(=O)O)C(=O)N[C@@H](C)C(=O)N[C@@H](C)C(=O)N[C@@H](CC(C)C)C(=O)N[C@@H](CCCNC(=N)N)C(N)=O)[C@@H](C)CC)[C@@H](C)CC)NC(=O)[C@H](CC(C)C)NC(=O)[C@H](Cc2ccc(O)cc2)NC1=O
B9: peptide 12 (peptide)
peptide: Suc-[dA]NYLALIEALIRAAQEQQEKNEAAL[dR]-NH2
SMILES: CC[C@H](C)[C@H](NC(=O)[C@H](CC(C)C)NC(=O)[C@H](C)NC(=O)[C@H](CCC(=O)O)NC(=O)[C@@H](NC(=O)[C@H](CC(C)C)NC(=O)[C@H](C)NC(=O)[C@H](CC(C)C)NC(=O)[C@H](Cc1ccc(O)cc1)NC(=O)[C@H](CC(N)=O)NC(=O)[C@@H](C)NC(=O)CCC(=O)O)[C@@H](C)CC)C(=O)N[C@@H](CCCNC(=N)N)C(=O)N[C@@H](C)C(=O)N[C@@H](C)C(=O)N[C@@H](CCC(N)=O)C(=O)N[C@@H](CCC(=O)O)C(=O)N[C@@H](CCC(N)=O)C(=O)N[C@@H](CCC(N)=O)C(=O)N[C@@H](CCC(=O)O)C(=O)N[C@@H](CCCCN)C(=O)N[C@@H](CC(N)=O)C(=O)N[C@@H](CCC(=O)O)C(=O)N[C@@H](C)C(=O)N[C@@H](C)C(=O)N[C@@H](CC(C)C)C(=O)N[C@H](CCCNC(=N)N)C(N)=O

What follows are binders tested against gp41 of HIV-1 strain HXB2D with mutation V38A (HIV-1 strain HXB2D, UniProt P04578) (assay: cell-based or functional assay).
For B1, the “fold change in EC50, HIV-HXB2D V38A mutant” value (“fold change in EC50” below) was 2 fold.
B2 was tested, and the “fold change in EC50” value was 2 fold.
For Ac-ENYLALIEALIRAAQEQQEKNEAALR-NH2 [peptide 8], the “fold change in EC50” value was 46 fold.
For Ac-ANYLALIEELIRAAQEQQEKNEAALR-NH2 [peptide 10], the “fold change in EC50” value was 50 fold.
B3 was tested, and the “fold change in EC50” value was 33 fold.
In the case of B4, the “fold change in EC50” value is reported as 6 fold.
For B5, the “fold change in EC50” value was 18 fold.
With B6 the “fold change in EC50” value was 46 fold.
For B7, the “fold change in EC50” value was 26 fold.
With B8 the “fold change in EC50” value was 2 fold.
For Ac-ENYLALIEALIRAAQEQQEKNEAALL-NH2 [peptide 9], the “fold change in EC50” value was 72 fold.
For B9, the “fold change in EC50” value was 51 fold.
With Ac-ANYLALIEALIRAAQEQQEKNEAALR-NH2 [peptide 6] the “fold change in EC50” value was 51 fold.
